Literature values in US20060193824A1, “Methods for the treatment of infectious and inflammatory airway diseases” (priority 2005, published 2006).

Tests used:
[1] = system: respiratory epithelial cells
[2] = system: mucus production
[3] = system: inflammation

B1: Human neutrophil elastase: Human neutrophil elastase (protein, UniProt P08246 30-267, looked up)
Neutrophil elastase: IVGGRRARPHAWPFMVSLQLRGGHFCGATLIAPNFVMSAAHCVANVNVRAVRVVLGAHNLSRREPTRQVFAVQRIFENGYDPVNLLNDIVILQLNGSATINANVQVAQLPAQGRRLGNGVQCLAMGWGLLGRNRGIASVLQELNVTVVTSLCRRSNVCTLVRGRQAGVCFGDSGSPLVCNGLIHGIASFVRGGCASGLYPDAFAPVAQFVNWIDSIIQRSEDNPCPHPRDPDPASRTH
With B1 as the molecule, how does the MUC5AC levels [1] read?
The MUC5AC levels was “increase MUC5AC levels”.

B2: IL-4: cytokine obtainable from R & D Systems (protein, UniProt P05112 25-153, looked up)
Interleukin-4: HKCDITLQEIIKTLNSLTEQKTLCTELTVTDIFAASKNTTEKETFCRAATVLRQFYSHHEKDTRCLGATAQQFHRHKQLIRFLKRLDRNLWGLAGLNSCPVKEANQSTLENFLERLKTIMREKYSKCSS
With B2 as the molecule, how does the mucus production [2] read?
The mucus production was “modulates mucus production”.

B3: IL-10: cytokine obtainable from R & D systems (protein, UniProt P22301 19-178, looked up)
Interleukin-10: SPGQGTQSENSCTHFPGNLPNMLRDLRDAFSRVKTFFQMKDQLDNLLLKESLLEDFKGYLGCQALSEMIQFYLEEVMPQAENQDPDIKAHVNSLGENLKTLRLRLRRCHRFLPCENKSKAVEQVKNAFNKLQEKGIYKAMSEFDIFINYIEAYMTMKIRN
For B3, which inflammation [3] is on record?
The inflammation was “attenuates excessive inflammation”.
